Here are results for eleven molecules from patent US20230057263A1 (CYTOMX THERAPEUTICS, published 2023).

No end group written: not given here. *: point of attachment. Biotin = O=C1N[C@H]2[C@H](CS[C@H]2CCCCC(=O)*)N1; linker = not defined here

Experiment [1] deals with T1, AGS73.15 (MS497).
T1 construct: It carries a human IgG Fc (detected with anti-human IgG Fc)
The experiment in a line: flow cytometry, blocking of AGS73.15 binding to CD3ε on human T cells, % binding, the axis reads nM. A general note: A flow cytometer gives signals particle by particle.

The target of experiment [2] is T1, AGS73.15 (MS497). The experiment in a line: flow cytometry, blocking of AGS73.15 (200 ng/ml) binding to CD3ε on human T cells; AGS73.15 detected with anti-human IgG Fc-PE.
Experiment [3] addresses T2, biotinylated 15-mer peptide corresponding to the CD3ε N-terminus (human, UniProt P07766 22-36, limits assumed, not fully specified; reading uncertain).
T2 construct: domain: N-terminal 15-mer; Immobilised on streptavidin-conjugated Luminex beads; The text says 'peptides' in the plural, so more than one overlapping N-terminal 15-mer may be meant; also called N-terminal 15-mer; biotinylated N-terminal 15-mer
T2 peptide (looked up): {Biotin-linker}-QDGNEEMGGITQTPY
Briefly: Luminex bead assay, peptide on streptavidin beads. The protocol:
A set of experiments was performed to map the epitope recognized by the anti-CD3ε antibodies. In these experiments, the anti-CD3ε antibodies were assessed for binding to a collection of overlapping 15-mer peptides spanning amino acids 1-27 of human CD3ε protein using a Luminex bead assay. Control CD3 proteins, control peptides, or the test peptides were immobilized on Luminex beads and incubated with a panel of anti-CD3 antibodies. Binding of the anti-CD3 antibodies to the peptide/protein immobilized on the Luminex bead was detected by R-Phycoerythrin conjugated secondary antibody.
Recombinant CD3 proteins (human CD3d/e heterodimer and cynomolgus CD3-epsilon (Sinobiological)) and control peptides (#p1, #p2, and #p3) were conjugated to Luminex beads using standard EDC/Sulfo-NHS chemistry. […] The Luminex beads with immobilized peptides or reagents were incubated with 50 ul of a panel of anti-CD3 antibodies (1 ug/ml) for one hour at room temperature, washed two times, incubated with mixture of anti-human and anti-mouse IgG-RPE (Jackson Immunoresearch 109-116-097 and Southern Biotech 1030-09, respectively) for 30 mins at RT, washed three times, and analyzed in the Luminex instrument to assess the level of bound anti-CD3 antibodies.

Experiment [4] deals with T3, human CD3 epsilon (CD3ε) (human, UniProt P07766 23-207).
T3 construct: Present on donor human T cells as part of the TCR-CD3 complex; also called CD3ε on human T cells
Briefly: flow cytometry on human T cells. The protocol:
(§1) In these experiments, human or cynomolgus T cells were incubated with an anti-CD3ε antibody and binding was assessed by flow cytometry.
(§2) Briefly, donor T cells from either human or cynomolgus donors were resuspended in FACS buffer containing 0.1% sodium azide and aliquoted in 100 μL volumes. For incubation, 100 μL aliquots of donor T cells were mixed with 50 μL of antibodies diluted in FACS buffer containing 0.1% sodium azide. The cells were then washed twice with FACS buffer containing sodium azide. The bound antibody was detected by incubating cells for 60 minutes with a 1:200 dilution of SAV-RPE (Invitrogen Cat No. SA10044, Lot. 1542820A) or 1:100 dilution of goat-anti-Mouse Fcγ-RPE (Jackson Cat. No. 115-116-071, Lot. 108668, diluted in 0.2% goat serum). The cells were washed, fixed, and analyzed with an Accuri Flow Cytometer.
(§3) Treatment with OKT3, SP34-2, and diL2K antibodies were used as positive controls for T cell binding. […] Treatment with OKT3, SP34-2, and diL2K antibodies were used as controls for T cell binding with only SP34-2 binding to cynomolgus T cells, as expected.

Experiment [5] has as its target T4, cynomolgus CD3-epsilon (cynomolgus, UniProt Q95LI5 22-198).
T4 construct: whole, on cells; also called CD3ε on cynomolgus T cells / PBMCs
The experiment in a line: flow cytometry on cynomolgus T cells. The protocol: as §1, §2, §3

In experiment [6] the target is T4, cynomolgus CD3-epsilon. Briefly: flow cytometry, three-colour staining (CD3/CD4/CD8) of cynomolgus PBMCs of three donors. As to the method:
Cross-reactivity of anti-CD3ε antibodies to cynomolgus CD3-epsilon was assessed by three-color phenotyping (CD3/CD4/CD8) using PBMCs from three different cynomolgus donors.
PBMCs from different cynomolgus donors were stained with anti-CD4, anti-CD8, and a panel of different anti-CD3 antibodies. For each anti-CD3 antibody, the CD3 positive cells were gated and assessed for their CD4/CD8 phenotype. FIG. 8A depicts the total CD3 positive cells in PBMCs from the three different donors. FIGS. 8B-8E show the percentage of CD3 positive cells displaying CD4−/CD8+, CD4+/CD8−, CD4+/CD8+, and CD4−/CD8− phenotypes, respectively.

T4 sequence (Q95LI5 22-198): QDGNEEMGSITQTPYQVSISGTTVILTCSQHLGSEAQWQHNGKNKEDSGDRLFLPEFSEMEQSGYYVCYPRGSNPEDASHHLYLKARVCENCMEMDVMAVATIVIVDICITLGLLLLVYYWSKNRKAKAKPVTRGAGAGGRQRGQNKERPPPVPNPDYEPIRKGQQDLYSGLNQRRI

B1: 6d59.id.1b54.1 (antibody, V domains shown)
VH: DVQLQESGPGLVKPSQSLSLTCSVTGYSITSSYYWNWIRQFPGNKLEWMGSIMYDGNNNYNPSLKNRISITRDTSKNQFFLKLNSVTTEDTATYYCARNMADYFGNTYDALDYWGQGTSVTVSS
VL: DILLTQSPGSLAVSLGQRATISCKASQSADYGGDSYMSWYQQKPGQPPKLLIYAASNLESGTPARFSGSGSGTDFTLNIHPVEEEDAATYYCQQGNEDPWTFGGGTKLEIKR
notes: Anti-idiotypic antibody against 6d59
What is called EC50 is the concentration needed to bring the measured effect to its halfway point. For the molecule B1, the midpoint of the response in experiment [1], the EC50, lay at 0.413 nM. Moreover, the “IC50 (read off the curve)” value in experiment [2] was roughly 0.07 µg/mL.

B2: 6d59.id.1b71.1 (antibody, V domains shown)
VL: DIVLTQSPASLAVSLGQRATISCKASQSVDYDGNGYMNWYQQKPGQPPKLLIYAASNLESGIPARFSGSGSGTDFTLNIHPVEEEDAATYYCQQSNEDPYTFGGGTKLEIKR
V domain: EVQLQQSGSELASPGTSVKLSCKASGYTFTSYWVQWIKQRPGQGLEWIGAIYPGDGDLRSTQKFKGKATLTADKSSDTAYMQLSSLASEDSAVYYCARLDDFDLDYWGQGTTLIVSS
notes: as for B1
The molecule B2 had a half-maximal effective concentration (EC50) in experiment [1] of 0.327 nM. Further, the “IC50 (read off the curve)” value in experiment [2] is roughly 0.06 µg/mL.

B3: 6d59.id.1b73.1 (antibody, V domains shown)
VH: QVQLQQSGPEVVKPGASVKMSCKASGYTFTDCVISWIKQRTGQGLEWIGEIHPGSGNTYNNEKFKGKATLTADKSSNTAYIQLSSLTSEDSAVYFCARVGDWYDDAMDYWGQGTSVTVSS
VL: DIVLTQSPASLAVSLGQRATISCKASQSVDYDGNGYMNWYQQKPGQPPKLLIYAASNLESGIPARFSGSGSGTDFTLNIHPVEEEDAATYYCQQSNEDPYTFGGGTKLEIKR
notes: as for B1
In experiment [1], B3 gave a half-maximal effective concentration (EC50) of 0.335 nM. In addition, the “IC50 (read off the curve)” value in experiment [2] was roughly 0.05 µg/mL.

B4: 6d59.id.1b76.1 (antibody, V domains shown)
VH: DVKLVDSGGGLVKPGGSLKLSCAASGFTFSNYGMSWVRQTPEKRLEWVATISSGGYYTYYPDSVKGRFTISRDNAKNTLYLQMGSLKSEDTAMYYCSRDREGFGNYLGAMDYWGQGTSVTVSS
VL: DIVLTQSPASLAVSLGQRATISCKASQSVDYDGNGYMNWYQQKPGQPPKLLIYAASNLESGIPARFSGSGSGTDFTLNIHPVEEEDAATYYCQQSNEDPYTFGGGTKLEIKR
notes: as for B1
The molecule B4 registered an EC50 in experiment [1] of 0.243 nM. The “IC50 (read off the curve)” value in experiment [2] was roughly 0.05 µg/mL.

B5: 6d59.id.1b61.1 (antibody, V domains shown)
VH: DVQLQESGPGLVKPSQSLSLTCSVTGYSITSSYYWNWIRQFPGNKLEWMGYIMYDGNNNYNPSLKNRISITRDTSKNQFFLKLNSVTTEDTATYYCARNMADYFGNTYDALDYWGQGTSVTVSS
VL: DILLTQSPGSLAVSLGQRATISCKASQSADYGGDSYMSWYQQKPGQPPKLLIYAASNLESGTPARFSGSGSGTDFTLNIHPVEEEDAATYYCQQGNEDPWTFGGGTKLEIKR
notes: as for B1
On to B5, for which, in experiment [1], the EC50 is 0.368 nM. The “IC50 (read off the curve)” value in experiment [2] was roughly 0.06 µg/mL.

B6: 6d23 (antibody, V domains shown)
VH: QVQLVESGGGVVQPGRSLRLSCEASGFTFRSYGMHWVRQAPGKGLEWVAIIWYDGSNKYYGDSVKGRFTISRDNSKNTLSLQMNSLRAEDTAVYYCASLSVNDYYVLDVWGQGTTVTVSS
VL: DVVMTQSPFSLPVTLGQPASMSCRSSQSLVNSDGKTHLNWFQQRPGQSPRRLIYKVSNRDSGVPDRFSGSGSGTDFTLKISRVEAEDVGVYYCMQGTHWPLTFGGGTKVEIKR
notes: Anti-CD3ε antibody; also called 6d23.1; VCD3-6d23.1
As to B6, in experiment [3], the binding result is “no binding (tested: 1 ug/ml)”.

B7: 4b8 (antibody, V domains shown)
VH: EVQLVESGGGLVKPGGSLRLSCAASGFTFSSYSMNWVRQAPGKGLDWVSYISRSSNYTYYADSVMGRFTISRDNAKNSLYLQMNSLRAEDTAVYYCARDRRGYSGYNHFDYWGQGTLVTVSS
VL: DIQMTQSPSSLSASVGDRVTITCRASQSISNYLNWYQQKPGKAPKLLIYAASSLQSGVPSRFSGSRSGTDFTLTISSLQPEDFASYYCQQSFSTLYTFGQETKLEIKR
notes: Anti-CD3ε antibody
In general, EC50 (read off the curve) refers to the concentration that produces a half-maximal response. Low values mean an effect from little substance, high ones a need for much substance. For the molecule B7, the half-maximal effective concentration (EC50 (read off the curve)) in experiment [4] lay in the range of 1 to 3 nM. Further, the binding result in experiment [5] is “no binding”.

B8: 6d59.id.1b67.1 (antibody, V domains shown)
VH: QVTLKESGPGILKPSQTLSLTCSFSGFSLSTSGMGVGWIRQPSGKGLEWLAHIWWDDDKFYKPSLKNRLTISKDTSRNQVFLKITSVDTADAATYFCVRRSAYEAFTLDYWGQGTSVTVSS
VL: DIMLTQSPASLAVSLGQRATISCKASQSVDYDGNGYLNWYQQKPGQPPKLLIYAASNLESGIPARFSGSGSGTDFTLNIHPVEEEDVATYYCQQSSEDPFTFGSGTKLEIKR
notes: as for B1
Turning to B8, the EC50 in experiment [1] was found to be 0.56 nM. The “IC50 (read off the curve)” value in experiment [2] was roughly 0.08 µg/mL.

B9: 6d59.id.1b18.1 (antibody, V domains shown)
VH: DVLLQESGPGLVKPSQSLSLTCSVTGYSITSGHYWIWIRQFPGNKLEWMGYITYDGSNNYNPSLKKRISITRDTSENQFFLKLNPVTTEDTATYYCARDVADSYGNGYDAMDYWGQGTSVTVSS
VL: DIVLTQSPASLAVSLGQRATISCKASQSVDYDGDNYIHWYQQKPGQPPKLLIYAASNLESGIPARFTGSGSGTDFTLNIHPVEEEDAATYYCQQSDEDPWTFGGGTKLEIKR
notes: as for B1
In experiment [1], B9 displayed an EC50 of 0.443 nM. For the same molecule, the “IC50 (read off the curve)” value in experiment [2] was roughly 0.07 µg/mL.

B10: 1c144.1 (antibody, V domains shown)
VH: ELQLVESGGGLVQPGGSLRLSCAASGFNFRSYEMNWVRQAPGKGLEWVSYISSSSTTIYYAGSVKGRFTISRDNAKHSLYLQMNSLRAEDTAVYYCARDRGALDYWGQGTLVTVSS
VL: DIQMTQSPSSLSASVGDRVTITCQASQDIRKYLNWYQQKPGKAPKLLIYDASNLETGVPSRFSGSGSGTDFSFTISSLQPEDLATYYCQHYANLPPLFTFGPGTKVDIKR
notes: the sheet prints 1c144.1
Turning to B10, the binding result in experiment [6] is given as “binds”.

B11: 6d58 (antibody, V domains shown)
VH: QVHLVESGGGVVQPGRSLRLSCAASGFKFRSYGMHWVRQAPGKGLEWVAIIWYDGSKRYYADSVKGRFTISRDNSKNTLYLQMSSLRAEDTAVYYCARDLITGTTDYWGQGTLVTVSS
VL: DVVMTQSPLSLPVTLGQPASISCRSSRSLVYSDGNTHLIWFQQRPGQSPRRLIYRVSNRVSGVPDRFSGSGSGTDFTLKISRVEAEDVGVYYCLQGAHWPYTFGQGTKLEIKR
notes: also called 6d58 (same as 6d59)
Consider B11, for which the entries for the “EC50 (read off the curve)” value in experiment [4] and in experiment [5] were roughly 0.05 nM and roughly 0.07 nM, respectively.
